Test results from US20190175744A1 (Merck Sharp & Dohme, published 2019).
Starred links: 1 amine or outer side, 2 acyl side, 3 side chain; linkers in the order of their positions; H or OH if unused. Non-standard residues stand in square brackets, D forms with d. Groups on a side chain read outwards from the residue. No end group written: not given here. *: point of attachment. C20 diacid = O=C(O)CCCCCCCCCCCCCCCCCCC(=O)*; Lys(N3) = [N-]=[N+]=NCCCC[C@H](N)C(=O)O; γGlu = O=C(O)[C@H](CCC(=O)[*:2])N[*:1]; Met(O2) = CS(=O)(=O)CC[C@H](N)C(=O)O; AEEA = NCCOCCOCC(=O)O; Aib = CC(C)(N)C(=O)O

B1: PEP34 (peptide)
peptide: HXQGTFTSDKSKYLDERAAQXFVXWLXDT
modifications: D-Ser (s) at 2; Lys 10 K(γEγEC16); alpha-methyl-L-Asp (αMD) at 21; Nle(εN3) at 24; L-methionine sulphone (2) at 27; C-terminal amide
B2: PEP35 (peptide)
peptide: HXQGTFTSDKSKYLDERAAQDXVXWLXDT
modifications: D-Ser (s) at 2; Lys 10 K(γEγEC16); alpha-methyl-L-Phe (αMF) at 22; Nle(εN3) at 24; L-methionine sulphone (2) at 27; C-terminal amide
B3: PEP32 (peptide)
peptide: HXQGTFTSXKSKYLDERAAQDFVXWLXDT
modifications: D-Ser (s) at 2; alpha-methyl-L-Asp (αMD) at 9; Lys 10 K(γEγEC16); Nle(εN3) at 24; L-methionine sulphone (2) at 27; C-terminal amide
B4: PEP31 (peptide)
peptide: H[Aib]QGTFTSDYSKYLDARAAK([AEEA-AEEA-γGlu-C20 diacid])DFV[Lys(N3)]WL[Met(O2)]DT-NH2
modifications: N-terminus assumed
SMILES: CC(C)C[C@H](NC(=O)[C@H](Cc1ccc(O)cc1)NC(=O)[C@H](CCCCN)NC(=O)[C@H](CO)NC(=O)[C@H](Cc1ccc(O)cc1)NC(=O)[C@H](CC(=O)O)NC(=O)[C@H](CO)NC(=O)[C@@H](NC(=O)[C@H](Cc1ccccc1)NC(=O)[C@@H](NC(=O)CNC(=O)[C@H](CCC(N)=O)NC(=O)C(C)(C)NC(=O)[C@@H](N)Cc1c[nH]cn1)[C@@H](C)O)[C@@H](C)O)C(=O)N[C@@H](CC(=O)O)C(=O)N[C@@H](C)C(=O)N[C@@H](CCCNC(=N)N)C(=O)N[C@@H](C)C(=O)N[C@@H](C)C(=O)N[C@@H](CCCCNC(=O)COCCOCCNC(=O)COCCOCCNC(=O)CC[C@H](NC(=O)CCCCCCCCCCCCCCCCCCC(=O)O)C(=O)O)C(=O)N[C@@H](CC(=O)O)C(=O)N[C@@H](Cc1ccccc1)C(=O)N[C@H](C(=O)N[C@@H](CCCCN=[N+]=[N-])C(=O)N[C@@H](Cc1c[nH]c2ccccc12)C(=O)N[C@@H](CC(C)C)C(=O)N[C@@H](CCS(C)(=O)=O)C(=O)N[C@@H](CC(=O)O)C(=O)N[C@H](C(N)=O)[C@@H](C)O)C(C)C
B5: PEP37 (peptide)
peptide: HXQGTFTSDKSKYLDERAAQDFVXWXXDT
modifications: D-Ser (s) at 2; Lys 10 K(γEγEC16); Nle(εN3) at 24; alpha-methyl-L-Leu (αML) at 26; L-methionine sulphone (2) at 27; C-terminal amide
B6: PEP74 (peptide)
peptide: HXQGTFTSDKSKYLDERAAQDFVXWLLDT
modifications: HsQGTFTSDK(γEγEC16)…le(ϵN3)WLLDT-NH2 (s=D-serine; K(γEγEC16) at 10; Nle(ϵN3)=azidonorleucine at 24; NH2=C-terminal amide)

How the values were obtained:
Assay in all cases: cell-based or functional assay
human GLP-1 receptor = human GLP-1 receptor (human, UniProt P43220 24-463)
human glucagon receptor = human glucagon receptor (human, UniProt P47871 26-477)
[1] = biological target: human Glucagon receptor (GCGR) (human, UniProt P47871 26-477)
[2] = biological target: human GLP-1 receptor (GLP1R) (human, UniProt P43220 24-463)

Binder	hGLP1R EC50 (cAMP activity assay) (human GLP-1 receptor) [nM]	hGCGR_EC50 (cAMP activity assay) (human glucagon receptor) [nM]	Incretin Receptor Assay (cAMP) EC50, GCGR (Human) [1] [nM]	Incretin Receptor Assay (cAMP) EC50, GLP1R (Human) [2] [nM]
B1	0.05	0.05		
B2	0.05	0.05		
B3	0.04	0.06		
B4	1.38	4.24		
H[dS]QGTFTSDKSKYLDERAA[Lys(N3)]DFVQWLLDT-NH2 [PEP71]	0.06	0.12		
H[dS]QGTFTSDK([γGlu-γGlu-C16])SKYLDERAAQDFVQWLLDT-NH2 [Control molecule PEP76 (Table 7)]			0.009	0.007
B5	0.04	0.06		
B6				0.05
HXQGTFTSDKSKYLDERAAQDFVXWLLDT (D-Ser (s) at 2; Nle(εN3) at 24; C-terminal amide) [PEP69]	0.16	0.31		
HXEGTFTSDKSKYLDERAAQDFVXWLLDT (D-Ser (s) at 2; Lys 10 K(γEγEC16); Nle(εN3) at 24; C-terminal amide) [PEP75]	0.07	> 5		
